Assay results as given in patent US6482410B1, “Cytotactin derivatives that stimulate attachment and neurite outgrowth, and methods of making same” (The Scripps Research Institute, priority 1994, dated 2002).
“And” between values parts separate entries of the source, which are not always exact repeats. Equal entries are not always repeated. “Also recorded” adds a separate entry of the source.

Assays:
[1] = system: dorsal root ganglia (DRG) neurons; assay: Two-dimensional neurite outgrowth assay, DRG, 15 hours; assay type: cell-based, chicken; conditions: 15 hours; for neurite promoting activity on DRG cells: low density; for % Sprouting / Neurite Length: Table 4, DRG; for % Sprouting: neurites greater than one cell diameter; for Neurite Length: per neurite-bearing cell; for Percent Sprouting / Neurite Length (in microns): Table 5, DRG; for Percent Sprouting: six experiments; for Neurite Length (in microns): three experiments
Procedure: (§1) Dorsal root ganglia (DRG) cells or forebrain neurons were prepared for the cell attachment assays as follows. DRG from day 6 chicken embryos or forebrains from day 7 chicken embryos were dissected into HBSS. The tissue was pelleted by centrifugation and resuspended in CMF-HBSS and incubated at 37° C. for 10 minutes. The tissue was pelleted again and resuspended in CMF-HBSS containing 0.08% trypsin and allowed to trypsinize for 20 minutes at 37° C. An equal volume of DMEM/F12, 10% FCS, 20 ng/ml nerve growth factor (NGF) (for DRG cells only), 10 μg/ml gentamycin (10% medium) was added, and the tissue was pelleted and resuspended in 2 ml of the 10% medium. The cells were triturated with a fire-polished Pasteur pipette for 15 strokes, and the cells were washed and resuspended in 10 ml of 10% medium. DRG cells were plated in a 10 cm tissue culture dish and incubated for 1 hour at 37° C. in 5% CO2, to allow for attachment of contaminating fibroblasts.
(§2) After replating, the cells were harvested, pelleted and washed three times in DMEM/F12, 1% fetal calf serum (FCS), 20 ng/ml NGF (for DRG cells only), 10 μg/ml gentamycin (1% medium), and the number of cells determined using a hemocytometer. The DRG were resuspended to a density of 6×10^5 cells/ml in attachment buffer. The neurons were resuspended to a density of 2×10^4 cells/ml in 1% medium and added to substrates and placed at 37° C., 5% CO2 for 15 hours.
(§3) After the growth period, the dishes were gently rinsed with PBS to remove unbound cells, fixed with 1% glutaraldehyde, and viewed by phase contrast microscopy. Ten to forty cells were analyzed for each substrate. Cells were judged as neurite-bearing if the length of the processes was greater than one cell diameter. All cells with neurites were photographed with a 20× objective and total neurite length per neurite-bearing cell was derived from the photographic prints. Percentage of neuronal sprouting was calculated from at least six experiments. Neurite length was calculated from at least three experiments.
This extensive neurite outgrowth after 40 hours made quantitation of the percentage of neurite-bearing cells and neurite length difficult. To analyze quantitatively the effect of CT/TN fusion proteins on DRG neurite outgrowth, DRG cells were therefore plated at low density on CT/TN or CT/TN fragments and analyzed after 15 hours in culture for the percentage of cells that sprouted neurites greater than one cell diameter and for the everage neurite length per neuron. These conditions enhanced the number of isolated cells and discouraged the cell-cell interactions and fasciculation that occurred in the long-term cultures.
The proteins used in the neurite outgrowth assays are the same as those used in the cell attachment assays. […] In addition, poly-L-lysine was adsorbed to the solid support. […] Any cells adhering to the solid support were examined for sprouting and neurite length as defined herein.
Proteins used in the neurite outgrowth assays were prepared as described in Example 5.A.2.
Dorsal root ganglia (DRG) from day 6 chicken embryos were prepared as described in Example 5.A.4. For the neurite outgrowth assays, the DRG were resuspended at a density of 2×10^4 cells/ml in 1% medium, added to solid support, and placed at 37° C. in 5% CO2 for 15 hours. After the attachment and growth period, the dishes were gently rinsed with PBS to remove unbound cells, fixed with 1% (v/v) glutaraldehyde, and viewed by phase contrast microscopy. Ten to thirty cells were analyzed for each adsorbed protein spot. Cells were judged as neurite-bearing if the length of the processes were greater than one cell diameter. All cells with neurites were photographed with a 40× objective and the total neurite length per neurite-bearing cell was derived from the prints. The percent of cells that were sprouting and the average neurite length was derived from six and three independent experiments, respectively. […]

DRG cells = assay: DRG neurite outgrowth, 40 hour culture, morphology; assay type: cell-based, chicken; conditions: DRG cells cultured 40 hours
Procedure: In order to assess the effect to the cell binding regions of CT/TN on the outgrowth of neurites from PNS neurons, DRG cells were cultured for 40 hours on popylysine, CTfn3, CTfn6, CTfg, and CTfn3-CTfn6 mixed substrates. The cultures were then fixed and the cell and neurite morphology was analyzed by phase contrast microscopy. The cells were plated on plastic substrates coated with the same concentrations of CTITN and fusion proteins used in the attachment assay.

[2] = system: neurons from chick forebrain; assay: CNS neurite outgrowth, forebrain neurons, 7 hours; assay type: cell-based; conditions: 7 hour growth period; for % Sprouting: Table 4, FB (forebrain) neurons
Procedure: as §1, §2, §3
To investigate whether CNS neurons could also extend neurites on CT/TN and CT/TN fragments, neurons from chick forebrain were plated at low density on CT/TN, CT/TN fragments and polylysine, and analyzed for neurite outgrowth after a 7 hour growth period (a time period found to be optimal for stable neurite outgrowth from these cells). The lengths of neurites on substrates that supported sprouting were essentially the same for the forebrain neurons and were therefore not quantitated further.

| Molecule | DRG neurite length versus polylysine ([1]; DRG) | percentage of neurite-bearing DRG cells versus polylysine ([1]; DRG) | neurite promoting activity on DRG cells ([1]; DRG) | % Sprouting [1] [%] | Neurite Length [1] [microns] | Percent Sprouting [1] | Neurite Length (in microns) [1] [microns] | neurite and cell morphology after 40 hours (DRG cells) | forebrain neuron sprouting versus polylysine [2] | % Sprouting [2] [%] | average neurite length relative to poly-L-lysine ([1]; DRG) [times] | forebrain cell attachment [2] | increase in number of neurite-bearing cells over polylysine ([1]; DRG) |
| --- | --- | --- | --- | --- | --- | --- | --- | --- | --- | --- | --- | --- | --- |
| CTfg: CT:GST fusion protein, entire fibrinogen domain, residues 1570-1810 of SEQ ID NO 4 (protein, left off: a dimerising Fc or GST) SMRSKMIQTVFTTTGLLYPYPKDCSQALLNGEVTSGLYTIYLNGDRTQPLQVFCDMAEDGGGWIVFLRRQNGKEDFYRNWKNYVAGFGDPKDEFWIGLENLHKISSQGQYELRVDLRDRGETAYAVYDKFSVGDAKTRYRLRVDGYSGTAGDSMTYHNGRSFSTFDKDNDSAITNCALSYKGAFWYKNCHRVNLMGRYGDNNHSQGVNWFHWKGHEYSIQFAEMKLRPSSFRNLEGRRKRA | not statistically different; also recorded: statistically indistinguishable | comparable | did show neurite promoting activity | 8 ± 3 | 82 ± 23 | 8 ± 3 | 83 ± 23 | basal level of outgrowth | not significantly different | 2.2 ± 0.5 |  |  |  |
| CTfn3: CT:GST fusion protein, fibronectin type III repeat III, residues 774-864 of SEQ ID NO 4 (protein, left off: a dimerising Fc or GST) LDAPSQIEAKDVTDTTALITWSKPLAEIEGIELTYGPKDVPGDRTTIDLSEDENQYSIGNLRPHTEYEYEVTLISRRGDMESDPAKEVFVT | significantly longer | comparable; also recorded: the same as on poly-L-lysine | did show neurite promoting activity | 12 ± 2 | 260 ± 141 | 12 ± 2 | 260 ± 141 | long fasciculated processes | no effect on neurite outgrowth | 0 | 3 | did not support forebrain cell attachment |  |
| CTfn6: CT:GST fusion protein, fibronectin type III repeat VI, residues 1318-1398 of SEQ ID NO 4 (protein, left off: a dimerising Fc or GST) VVGSPKGISFSDITENSARVSWTPPRSRVDSYRVSYVPITGGTPNVVTVDGSKTRTKLVKLVPGVDYNVNIISVKGFEESE | not statistically different; also recorded: statistically indistinguishable | increase in neurite outgrowth over poly-L-lysine | did show neurite promoting activity | 31 ± 2 | 153 ± 124 | 31 ± 2 | 154 ± 124 | moderately long neurites | significant increase | 8.7 ± 1.9 |  | promotes attachment | 82% and 57% |
